The values that follow come from patent US20100041596A1 (published 2010).

One experiment has as its target T1, p60ΔCD-GFP-HA (UniProt P42212 1-238 = GFP, limits assumed).
T1 construct: GFP introduced in-frame into p60ΔCD-HA; p60 limits deduced as for p60ΔCD-HA; also called chimeric p60 receptor with the cytoplasmic domain replaced by GFP
The experiment is described as follows: co-immunoprecipitation in 293T transient transfections. On the procedure: The PCR product was digested with BamHI and EcoRI and cloned into pcDNA3. The PCR fragments containing the receptor fragments were then introduced into this plasmid using the EcoRI and XhoI sites. For the GFP/CFP/YFP chimeras, the fragments were amplified by PCR and introduced in-frame into the XhoI and XbaI sites of p60ΔCD-HA. 293T cells were transfected with Fugene 6 (Boehringer Mannheim) as per manufacturer's protocol. Cells were lysed in 150 mM NaCl, 20 mM Tris.Cl [pH 7.5], 1 mM EDTA, 30 mM NaF, 2 mM β-glycerophosphate, 1 mM sodium orthovanadate, 5 mM iodoacetamide, 2 mM dithiothreitol (DTT), 1% TRITON X-100 and protease inhibitors (Boehringer Mannheim). After pre-clearing with protein G agarose beads (Boehringer Mannheim) and normal mouse IgG, proteins were immunoprecipitated from the lysates with […] anti-GFP and protein G agarose beads. Immune complexes were washed twice with lysis buffer containing 0.5 M NaCl and then three times with regular lysis buffer. Immune-complexes were resolved on Tris/Glycine gels (Novex).

The target in another experiment is T2, TNFα, biotinylated form (human, UniProt P01375 77-233, biotinylated).
T2 construct: also called biotinylated human TNF-α; Bt-TNF-α
The experiment is described as follows: biotinylated TNFα staining normalized to HA staining.

T2 sequence (P01375 77-233 limits assumed): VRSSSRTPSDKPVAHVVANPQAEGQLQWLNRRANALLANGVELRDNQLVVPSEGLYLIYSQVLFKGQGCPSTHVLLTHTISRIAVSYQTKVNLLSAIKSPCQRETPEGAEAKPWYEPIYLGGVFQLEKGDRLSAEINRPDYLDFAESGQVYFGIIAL

B1: p60ΔCD-HA K32A (receptor, not shown: small tags and cut ends)
chain: LVPHLGDREKRDSVCPQGKYIHPQNNSICCTACHKGTYLYNDCPGPGQDTDCRECESGSFTASENHLRHCLSCSKCRKEMGQVEISSCTVDRDTVCGCRKNQYRHYWSENLFQCFNCSLCLNGTVHLSCQEKQNTVCTCHAGFFLRENECVSCSNCKKSLECTKLCLPQIENVKGTEDSGTTVLLPLVIFFGLCLLSLLFIGLMYRYQRWK
notes: Mutant of p60ΔCD-HA; numbers count on mature p60
On to B1, for which the binding result with p60ΔCD-GFP-HA is reported as “no binding”; with TNFα, biotinylated form, “no binding”.
